Assay results: the nanobody polyreactivity screen of Harvey et al. (2022)

test: yeast display, Sf9 membrane polyspecificity reagent, FACS + sequencing; frameworks hold sequencing errors
Summary of the method: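 Using colony PCR, genes from sorted yeast display clones were amplified, then sequenced on MiSeq at 2 × 250 and filtered by CDR length. The clones had been stained with 10% biotinylated, detergent-solubilized Sf9 membrane reagent for 1 hour at 4 °C and sorted by FACS into low and high (top ~1%) gates on anti-HA and streptavidin fluorescence. Polyreactivity labels come from the gate of origin.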

| Sequence | polyreactivity (PSR sort gate) |
| --- | --- |
| QVQLVYSGGGLVQAGGSLRLSCAASGLILWPYTMGWYRQSPWKERELVAAISSSGGSTYYADSVKGRFTISRDNAKNTVYLQMNSLKPEDTAVYYCAAVCWVISGKNGAGSMDYWGLGTQVTVSS | high polyreactivity |
| QVQLVYSGGGLVQAGGSLRLSCAASGSTFQAYDMGWYRQAPGKERELVAAITTGGSTNYADSVKGRFTISRDNAKNTVYLQLNSLKPEDTAVYYCNADFIYVLYYVVLYDYWGQGTQVTVSS | low polyreactivity |
| QVQLVYSRRGLVQAGGSLRLSCAASGLIFAWYAIGWYRQATVNVRELVATISWNGDRTYYADSVKGRFTIARDNGKTSVYLQINSLQAEDTAVYYCAAYSVFRSYDYWGQGTQVTVSS | high polyreactivity |
| QVQNVESGGGLVQAGGSLRLICAASGSIFDPYAMGRYRQAPGKEMELVAAIRKRGSSTYYADSVKGRFTISRDNAKYTVYLQMNSLKPEDTAVYYCAATWVSVWYRYDYWGQGTQVTVSA | high polyreactivity |
| QVQPVESGAGLVQAGGSLRLSCAASGSIFWSYAMGLYRQAPGKERELVAAITTSDGSTYYADSVKWRFTISRDNAKNTVYLQMNSLKPEDTAVYYCAADTYYVSYGYYYWGQGTQVTVSS | low polyreactivity |
| QVQQQESGGGLVQAGGILRMSCAASGTIFSEANMGSYRQAPGKERELVATIGQGSTTNYADSVKGRFTISRDNAKNTVYLQMNSLKPEETAVYYCAVVNVDPVGFVYWGQGTQVTVSS | low polyreactivity |
| QVQQQESGGGLVQAGGSLRLSCAASGSIFDGFNMGWYRQAPGKEREFVAAISYGASTYYADIVKGRFTDSRDNAKYSVYLQMIRLKPEDTAVYYCAVYDELYHVLVYWGRGTQVTVSS | low polyreactivity |
| QVQQQESGGGLVQAGGSLRLSCAASGTIFQLTVMGRYRQAPGKERELVASIDYGGNTNYADSVKGRFTISRDNAKNTVYLQMNSLKPEDTAVYYCAASSDSWTTHPYWGQGTQVTVSS | low polyreactivity |
| QVQQQESGGGLVQAGGSLRLSCAASGTIFQLTVMRRYRQAPGKERELVASIDYGGNTNYADSVKGRFTISRDNAKNTVYLQMNSLKPEDTAVYYCAASSDSWTTHPYWGQGTQVTVSS | low polyreactivity |
| QVQQQESGGGLVQAGGSLRLSCAASGTILYSLGMGWYRQAPGKRREFVASITWGTTTNYAESVKGRFTISRDNAKNTVYPQMNSLKPEDTAVYYCNKSSTGWTSTYDYWGQGTQVTVSS | low polyreactivity |
| QVQQQESGGGLVQAVGSLRLSCAASGTIIQLTVMGRYRQAPGKERELVASIDYGGNTNYADSVKGRFTISRDNAKNTVYLHMNSLKPEDTAVYYCAKESRPAEGDSGYDYWGQGTLVTVSS | low polyreactivity |
| QVQREESGGGLVQAGGSLRLSCAASGNIFYQYAMGWYRLAPGKEREFVAAISISGTSTYADSVKGRFTISRDNAKNTVYLQMNSLKPVDTAVYWGQGTQVTVSS | low polyreactivity |
| QVQREESVGGLVQAGVSLRLSCAASGLTLAPYAMGAYRQAPGKERELVAAITFSGGSTYYADSVKGRFTISRDNAKNTVYLQMNSLKPEDTAVYYCARDTWAYKYVYPYYSWGQGTQVTVSS | low polyreactivity |
| QVQRLESAGGLVQAGGSLRLSCAASGFIFSYYAMGWYRQAPGKERELVAAIDGSGGSTYYADSVKGRFTISRDNAKNTVYLQKNSLKPEDTAVYYCNTLIYIQGLGYDYGGQGTQVTVSS | high polyreactivity |
| QVQRVESAGGLVQAGGSLRLSCAASGFIFSWYAMGWYRQAPGKERELVAAIRWSSGRTYYADSVKGRFTISRDNAKNTVYVQMNSLKPEDTAVYYCNARSDIHNSYDYWGQGTQVTVSS | high polyreactivity |
| QVQRVESGGGIDQAGGSLRLSCAASGLTFSIYAIGWYRQAPGKERDLVDAISWSGGSTYYADSVKGRFTISRDNAKNTVYLQMISLKPEVTAVYYCAARVYRPWWRYDYWGQGTQVSVSS | high polyreactivity |

| Sequence | polyreactivity (PSR sort gate) |
| --- | --- |
| QVQRVESGGGIVQAGGSLRLSCAASRRIFPYYALGWYRQSPGKERELVAAISQSDGSTYYADSVKGRFTISRDNAKNTVYLQMNSLKPEDTAVYYWAKRQASYTKHRKGRGDYWGQGTQVTVSS | low polyreactivity |
| QVQRVESGGGIVQAGGSLRLSSAASGSIYLYHAMGWYRPERGKERQLVAAIRSGGITYYADSVKGRFTISRDNAKNTVYLQMYSLKPEDTADYYCAAKFYWKGTPKKYYYWGQGTQETVSS | high polyreactivity |
| QVQRVESGGGLDQAGGSLRLSCAAYGRTFGLNAMGWYRQAPGKESELVAVISFGDGGKYYADSVKGRFTISRDNAKHTVYLQMNSLKPEDTAVYYCATEYQSTSVWGGHLVINPYDYWGQGTQVTVSS | low polyreactivity |
| QVQRVESGGGLFQAGGSLRLSCAASGFIFASYTMGWYRQAPGKERELVAAISRAGSTYYADSVKGRFTITRDNAKNTVYFQMNSLKPEDTAVYYCNAVSWRTSRYDYWGQGTQVTVSS | high polyreactivity |
| QVQRVESGGGLFQAGRSLRLSCAASGFIFSTYAMGWYRQAPGKERELVAAISSGGSTYYADSVKGRFTISRDNAKNTVYLQMNSLKPEDTAVDYCAADLGAYWFSYYYWGQGTQLTVSS | high polyreactivity |
| QVQRVESGGGLVQAGASLRLSCAASGGIFYRNAMLWYRQAPGKERELVAAISRRAGSTYYADSVKGRFTISRDNAKNTVYLQMNSLKPEDTAVYYCARRVVNVGDADREYWGQGTQVTVSS | high polyreactivity |
| QVQRVESGGGLVQAGASLRLSCSASGSTFYSNAMGWYRQAPGKERELVAAISGSGGRTYYADSVKGRFTISRDNEKKTVYLQMNSLKPEETAVYFCAVERTRSMGYWGQGTQVTVSS | high polyreactivity |
| QVQRVESGGGLVQAGGRLRISCAASGRTFRGNDMGWYRQAPGKERELVPTITRNGGSTRYADSVKGRFTISRDNAKNTVYLQMNSLQPEDTAVYYCAAREKYTPALEVEYWGQGTQVTVSS | high polyreactivity |
| QVQRVESGGGLVQAGGRLRLSFAASGFIFYAMGWYRQAPGKERELVAAITLSDGTTYYADSVKGRFTISRDNAKNTVYLQLNSLKPEDTAVYYCAAEYSVPYRGWDGYEYWGQGTQVTVSS | low polyreactivity |
| QVQRVESGGGLVQAGGSLLLSCAASGRIFYRSAMGWYRQAPGKESELVASISWSGGSTYYADSVKGRFTISRDNAKNTVYLQMNSLKPEDTAVYYCAARSYRYSYRYRAFDYWGQGTQVTVSS | high polyreactivity |
| QVQRVESGGGLVQAGGSLRISCAASGSITWYYSMGWYRQAPGKERELFAAISDSGGDKYYADSVKGRFTISRDNAKNTVYLQMNSLKPEDTAVYYCNARYSWYGTFGGDYWGQDTQVTVSS | low polyreactivity |
| QVQRVESGGGLVQAGGSLRLSCAASASIFASYAMGWYRQAPGKERELVASISRGGGTTYADSVKGRFTISRDNAKNTVYLQMNSLKPDDTAVYYCAARKVIRYRPYGYWGQGTQVTVSS | high polyreactivity |
| QVQRVESGGGLVQAGGSLRLSCAASASTIVIKAMGCYRQAPGKARELVADLDYRGGSTNYADSVKGRFTISRDNAKNTVYLQMNSLKPEDTAVYYFNKRYVIRRRGYDYWGQGTQVTVSS | low polyreactivity |
| QVQRVESGGGLVQAGGSLRLSCAASGFTIGSYAMGWYRQAPGKERELVAAITRRGGSTYYADSEKGRYTISRDNAKNTVSLQMNSLKPEDTAVYYCGKRSRDYVSSFRTSHANDYWGQGTQVTVSS | high polyreactivity |
| QVQRVESGGGLVQAGGSLRLSCAASGFTLLPNAMGWYRQAPGKETELVAAITASGGRTYYADSVKGRFTISRDNAKNTVYLQMNSLKPEDTAVYSCNADWQDDLAGYDVDYWGQGTQVTGSS | low polyreactivity |
| QVQRVESGGGLVQAGGSLRLSCAASGFTSLIYAMGWYRQAPGKESELVATITWGGGSTYADSVKGRFTISRDNAKNTVYLQMNSLKPEDTAVFYCIADIYDSWDYATVYSDRYDYWGQGTQVTVSS | low polyreactivity |
